Values quoted from earlier work in PMC4339652.
Where “and” joins values, the source holds several entries; their conditions need not be identical. Equal values may be shown once. Read-outs that look alike come from different tables or passages of the source.

Legend:
[1] = target: TolA TolAII-III (Escherichia coli) (UniProt P19934); assay: SPR
[2] = target: TolA TolAIII (Escherichia coli) (UniProt P19934); assay: SPR
[3] = target: TolA TolAIII (Escherichia coli) (UniProt P19934); assay: ITC
[4] = target: TolA TolAIII (Escherichia coli) (UniProt P19934); assay: stopped flow fluorescence
TolB (Escherichia coli) [5] = target: TolB (Escherichia coli) (UniProt P0A855); assay: ITC
Sequence of TolB (Escherichia coli) (P0A855 22-430): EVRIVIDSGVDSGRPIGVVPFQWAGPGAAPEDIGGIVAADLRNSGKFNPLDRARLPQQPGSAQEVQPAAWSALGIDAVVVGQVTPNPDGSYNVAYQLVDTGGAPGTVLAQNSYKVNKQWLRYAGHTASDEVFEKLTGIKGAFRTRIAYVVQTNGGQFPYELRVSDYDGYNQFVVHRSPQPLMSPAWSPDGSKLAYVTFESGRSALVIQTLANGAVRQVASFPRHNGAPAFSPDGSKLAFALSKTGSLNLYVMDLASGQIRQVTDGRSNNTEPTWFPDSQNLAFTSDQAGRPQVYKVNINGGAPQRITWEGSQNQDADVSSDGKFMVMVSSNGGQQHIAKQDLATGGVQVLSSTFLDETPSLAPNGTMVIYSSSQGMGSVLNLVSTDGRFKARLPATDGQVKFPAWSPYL

[6] = target: Colicin N 40-90 (Escherichia coli) (UniProt P08083); assay: SPR
Sequence of Colicin N 40-90 (Escherichia coli) (P08083 40-90): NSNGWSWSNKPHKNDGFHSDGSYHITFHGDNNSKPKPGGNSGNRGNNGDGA

[7] = target: Colicin N T domain (Escherichia coli) (UniProt P08083)
Sequence of Colicin N T domain (Escherichia coli) (P08083 1-90): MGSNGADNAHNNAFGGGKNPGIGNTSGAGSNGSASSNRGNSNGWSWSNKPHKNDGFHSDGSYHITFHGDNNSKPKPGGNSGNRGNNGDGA

[8] = target: G3p N1 (Filamentous phage) (UniProt O80297)
Sequence of G3p N1 (Filamentous phage) (O80297 18-79): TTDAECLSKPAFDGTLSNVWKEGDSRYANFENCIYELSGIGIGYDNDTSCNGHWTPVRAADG

TolB (Escherichia coli) [9] = target: TolB (Escherichia coli) (UniProt P0A855); assay: ITC; remark: listed apart in the source

Sequence of Colicin N 40-90 (P08083 40-90): as the sequence (P08083 40-90) above
Sequence of TolA TolAIII (Escherichia coli) (P19934 311-421): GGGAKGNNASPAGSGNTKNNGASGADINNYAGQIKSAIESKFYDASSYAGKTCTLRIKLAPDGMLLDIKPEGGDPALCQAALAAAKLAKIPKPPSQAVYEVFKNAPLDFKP
Sequence of TolA TolAIII (P19934 311-421): as above
Sequence of Colicin N T domain (1-90) (P08083 1-90): as the sequence (P08083 1-90) above
Sequence of TolA TolAII-III (P19934 48-421): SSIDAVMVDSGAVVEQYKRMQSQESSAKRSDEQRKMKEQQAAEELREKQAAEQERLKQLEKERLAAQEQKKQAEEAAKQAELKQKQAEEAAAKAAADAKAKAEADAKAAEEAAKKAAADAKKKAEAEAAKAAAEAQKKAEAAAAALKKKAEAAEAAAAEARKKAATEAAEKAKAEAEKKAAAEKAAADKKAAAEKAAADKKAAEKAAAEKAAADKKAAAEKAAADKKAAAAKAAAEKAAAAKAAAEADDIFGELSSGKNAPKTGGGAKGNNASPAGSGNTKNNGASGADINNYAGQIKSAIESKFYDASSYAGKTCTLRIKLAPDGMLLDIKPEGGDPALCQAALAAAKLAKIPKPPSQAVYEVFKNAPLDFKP
Sequence of TolA TolA (P19934 whole entry): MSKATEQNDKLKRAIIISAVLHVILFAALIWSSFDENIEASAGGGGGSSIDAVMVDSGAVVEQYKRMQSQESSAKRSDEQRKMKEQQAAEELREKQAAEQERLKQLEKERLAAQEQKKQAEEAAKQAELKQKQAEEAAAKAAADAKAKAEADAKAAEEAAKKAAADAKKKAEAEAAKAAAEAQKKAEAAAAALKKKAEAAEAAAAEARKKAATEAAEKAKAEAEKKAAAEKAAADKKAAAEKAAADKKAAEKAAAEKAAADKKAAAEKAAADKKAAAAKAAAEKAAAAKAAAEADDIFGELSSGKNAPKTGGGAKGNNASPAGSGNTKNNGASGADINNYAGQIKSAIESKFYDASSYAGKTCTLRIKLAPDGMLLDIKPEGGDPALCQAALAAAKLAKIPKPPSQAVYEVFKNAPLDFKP
Sequence of TolA TolAII-III (Escherichia coli) (P19934 48-421): as the sequence (P19934 48-421) above
Sequence of G3p N1 domain (P69168 16-88): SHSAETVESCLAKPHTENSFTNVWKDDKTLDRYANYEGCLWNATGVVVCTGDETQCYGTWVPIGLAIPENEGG

Colicin N 40-90 (from UniProt P08083)
Kd [1]: 940 nM
Kd [2]: 850 nM and 190 nM

Colicin N T domain (1-90) (from UniProt P08083)
Kd [3]: 1000 nM
Kd [2]: 1250 nM
Kd [4]: 2300 nM

G3p N1 domain (from UniProt P69168)
Kd [2]: 1000 nM

TolA TolA (from UniProt P19934)
Kd (TolB (Escherichia coli) [5]): 40000 nM

TolA TolAII-III (from UniProt P19934)
Kd [6]: 190 nM and 940 nM and 850 nM

TolA TolAIII (from UniProt P19934)
Kd [7]: 1000 nM
Kd [8]: 1000 nM
Kd (TolB (Escherichia coli) [5]): 13000 nM
Kd (TolB (Escherichia coli) [9]): 40000 nM
